Assay results taken from US9677053B2, “Laccases for bio-bleaching” (BASF ENZYMES LLC, priority 2006, dated 2017).

B1: BD22449: laccase from Cochiobolus heterostrophus, SEQ ID NO: 2, expressed in Aspergillus niger, tested as culture supernatant (protein, listed as Cochliobolus heterostrophus)
chain: MVSSISRVVTALGLLLPTVTSSVVPHKSLAPRTPEVPWKNTGLFSGHSKRQGYETACNHGPESRGCWIDDFNIDTDMDVEWPDTGKTVKYHLTITNTTGAPDGFERPMFLINGQYPGPTITADWGDVLEITVTNGLENNGTGIHWHGLRQLGTNEQDGVNGITECPIAPGDSKLYRFKATQYGTTWYHSHYSVQYGDGIVGPLIIKGPSTANYDIDLGAFPMTDWFHATTFTVNAAAVHANGPPTADNVLVNGSMTSSFGGKYAETILTPGKSHLLRLMNVGINNYLHVGLDGHQFQVISADFTPIEPFYTDSLVLAVGQRYEVIINATEAVGNYWLRVGTGGNCDGPNANAANIRSIFRYAGAPTEDPDTTGSLPSGCYDEDVVPYAKTTVPQEMPEQLSVGFNPNWTSDVTQNQGLVQWLVNGNPMAVDLEVPTLQSVLDGNVTYGNNRHVFAVDEKHQWQYWVIQQNSSNPPLPHPIHLHGHDFYVLAQVENAVWNGDISTLKTDNPIRRDTADLPAGGYLVLAFESDNPGAWLMHCHIPFHVAAGLGVQFLERESEIKAQDGYAEMHRTCANWQSWRYKYHPNGILFPGDSGLRRRN
B2: BD22865: laccase from Fusarium verticillioides, SEQ ID NO: 4, expressed in Aspergillus niger, tested as culture supernatant (protein)
chain: MALIERVWHACVSIVAWLTMWPTSPSTSYQHPLRPNHPHTHIEDPSPGFPIFHPPPGDHEFLCEYPEMTGFVQCSIPENRECWLRHPDGREFNIHTNYENFAPKGIMRHYTLNITESWYNADGQNFTEAKLFNGEYPGPWLEACWGDTFNITVINSMKRNGTSIHWHGIRQNQTMDMDGVNGITQCPIAPGDSFSYIFNTTQYGTSWYHSHYSVQYADGLQGPITIHGPQSAPYDATKRPLLMTDWSHESAFRLLFPGSQFSNKTILLNGAGNVSHYGYTPTLPIPDNYELYFNKTPTDKPTRPKRYLLRLINTSFDSTLVFSIDNHWLQIVTSDFVPIEPYFNTSVLIGIGQRYNVIVEANPLGGDVNEIPDDGNFWIRTWVADACGIAPGGEGYEKTGILRYNHSDKALPSSQPWVNISKACSDETYTSLRPKIPWYIGPAANAQNGERFNVTFDPNAKNTPEFQEEYPVATFGLQRPGQNFRPLQINYSDPVMFHLDEPRDTYPPKWVVIPEDYTEKEWVYFVLTIEGISARTGAHPIHLHGHDFALLQQEENQTYDPSRLNLKLDNPPRRDVVLLPRNGFVVIAFKADNPGIWLMHCHIARHASEGLAMQVLERQGDSNKLFPVGSPNMIEAERVCKVWETWMDGEKDFFEGDSGI
modifications: Fusarium verticillioides

Assays:
[1] = mediator ability to delignify pulp
[2] = thermotolerance, residual activity on ABTS; assay type: biochemical; conditions: 1 hour
Method: Laccases BD22449 and BD22865, identified and characterized in Examples 1-5 above were assayed for thermotolerance. Briefly, each laccases was tested at 50° C., 60° C. and 70° C. for 0-60 minutes wherein the residual activity on ABTS was measured. Supernatants from the Aspergillus cultures expressing BD22449 (SEQ ID NO:2) and BD22865 (SEQ ID NO:4) were isolated as described in Example 2. Supernatants were incubated at 50° C., 60° C. or 70° C. for 1 min, 5 min, 10 min, 30 min, and 60 min. For each time point, the oxidation of 2, 2′-azino-bis(3-ethylbenzthiazoline-6-sulfonic acid) (ABTS) by the laccase was measured using an OXYTHERM™ oxygen measurement instrument.

[3] = delignification of wood pulp with laccase and mediator, handsheet brightness; conditions: with Mediator 71 (50 mg per 1 gram softwood pulp), borate buffer pH 8, 22° C., then NaOH/H2O2 extraction at 75° C.
Method: Laccases BD22449 and BD22865, identified and characterized in Examples 1-5 above were assayed for wood pulp delignification with Mediator 71. Briefly, 1 gram of softwood pulp was treated with 3 mL of BD22449 or BD22865 culture supernatant isolated as described in Example 2 with 50 mg of Mediator 71 at 5% consistency in borate buffer pH 8 at 22° C. Laccase/mediator treatment was followed by extraction stage with 2.5% NaOH, 2% H2O2 at 75° C. Handsheets were made out of the treated pulp and brightness increase due to the laccase/mediator treatment was measured using Brightmeter Micro S-5 (Technidyne Corp. New Albany, Ind., USA). Brightness increase obtained with BD22449 and BD22865 with Mediator 71 was −30% (data not shown).

[4] = oxidation of Mediator 71 at pH 8, oxygen electrode; assay type: biochemical; conditions: for specific activity, oxidation of Mediator 71: 1 mM Mediator 71, pH 8, room temperature, laccase preparation, not purified protein
Method: BD22449 (SEQ ID NO:2), BD22865 (SEQ ID NO:4) and Trametes versicolor laccase (used as a control) were assayed for their ability to oxidize Mediator 71 at pH 8 using oxygen electrode. Briefly, 50 μL of BD22449 or BD22865 culture supernatant isolated as described in Example 2 was incubated with 950 μL Mediator 71 dissolved in Britton-Robinson Buffer to a final concentration of 1 mM at pH 8. The consumption of oxygen was measured at room temperature in an OXYTHERM™ oxygen measurement instrument over time as described above.

[5] = pHopt for oxidation of Mediator 71; assay type: biochemical; conditions: 1 mM Mediator 71, pH 5-10, room temperature, 20 min
Method: Next, the pHopt for the catalysis of the oxidation of Mediator 71 was determined for each laccase. […] of BD22449 or BD22865 culture supernatant isolated as described in Example 2 was incubated with […] Mediator 71 dissolved in Britton-Robinson Buffer to a final concentration of 1 mM at pH 5, 6, 7, 8, 9, or 10. The consumption of oxygen over 20 min at room temperature was determined in an OXYTHERM™ oxygen measurement instrument over time as described above. […] By contrast, the Trametes laccase had no activity on Mediator 71 at pH 7 or above.

[6] = TEMPO oxidation, oxygen consumption (OXYTHERM); assay type: biochemical; conditions: 1 mM TEMPO, pH 8, 22° C., culture supernatant
Method: Briefly, 50 μL of test culture supernatants isolated as described in Example 2 was incubated with 950 uL TEMPO (1 mM in Britton-Robinson Buffer at pH 8) at 22° C. in an OXYTHERM™ oxygen measurement instrument (Hansatech, England). Oxygen consumption was measured over time according to the manufacturer's instructions.

[7] = HBT oxidation, oxygen consumption; assay type: biochemical; conditions: 1 mM HBT, pH 8, 22° C.
Method: (§1) The ability of BD22865 (SEQ ID NO: 4) to oxidize mediators with higher redox potentials such as violuric acid and 1-hydroxybenzotriazole (HBT) at pH 8 at room temperature was also tested. Briefly, 50 μL of BD22865 culture supernatant isolated as described in Example 2 was incubated with 950 μL violuric acid (1 mM in Britton-Robinson Buffer at pH 8) or HBT (1 mM in Britton-Robinson Buffer) at pH 8 at 22° C. in an OXYTHERM™ oxygen measurement instrument. Oxygen consumption was measured as described above. SEQ ID NO:4 (BD22865) was able to oxidize both violuric acid and HBT with oxygen consumption rates of 150 nmol/min/mg and 100 nmol/min/mg, respectively under the conditions described herein.

[8] = violuric acid oxidation, oxygen consumption; assay type: biochemical; conditions: 1 mM violuric acid, pH 8, 22° C.
Method: as §1

Molecule | ability to delignify pulp [1] | efficiency among mediators ([1]; pH 5 and pH 8) | activity remaining after an hour at 60° C. [2] | brightness increase of handsheets [3] [%] | specific activity, oxidation of Mediator 71 [4] [nmol/min/mg] | pH of optimum oxidation of Mediator 71 [5] | TEMPO oxidation, oxygen consumption rate [6] | specific activity on Mediator 71 compared to BD22449 ([4]; pH 8) | HBT oxidation, oxygen consumption rate [7] [nmol/min/mg] | violuric acid oxidation, oxygen consumption rate [8] [nmol/min/mg]
CNC(=O)N(O)c1cccc(C(F)(F)F)c1 [Mediator 71, 3-(3′-Trifluoromethylphenyl)-3-hydroxy-1-methylurea] | capable of delignifying pulp | most efficient | – | – | – | – | – | – | – | –
B1 | – | – | approximately 100% | −30 | 677 | 8 | did not show TEMPO oxidation | – | – | –
B2 | – | – | about 40% | −30 | 1350 | 8 | 250 nmol/min/mg | about twice the specific activity | 100 | 150
